Data taken from patent US11078465B2, “Alcohol dehydrogenase mutant and application thereof in synthesis of diaryl chiral alcohols” (Jiangnan University, priority 2018, dated 2021).
Substitutions are numbered along the chain they refer to. In names and notes the source's numbering stands. Entries after “also recorded” stand apart in the source; their conditions may differ.

Experiments:
Type in all cases: biochemical
[1] = Kinetic analysis of alcohol dehydrogenase and mutants (NADPH oxidation, 340 nm, double reciprocal curve); settings: substrate CPMK
Description: (§1) Adopting a total reaction system of 200 μL, including: 1.0 mM NADPH, 1.0 mM substrate CPMK and sodium phosphate buffer (PBS, 100 mM, pH 7.0), fully and evenly mixing, maintaining at 30° C. for 2 min, adding an appropriate amount of enzyme solution, and detecting the change in light absorption at 340 nm.
(§2) The enzyme activity was calculated by the following formula: Enzyme activity (U)=EW×V×10^3/(6220×I);
(§3) in the formula, EW is the change in absorbance at 340 nm in 1 min; V is the volume of a reaction solution in mL; 6220 is the molar extinction coefficient of NADPH in L/mol·cm); and 1 is the optical path distance in cm. One activity unit (U) corresponds to the amount of enzyme required to catalyze the oxidation of 1 μmol NADPH per minute under the above conditions.
A column used for purification was a nickel affinity column HisTrap FF crude, and purification was achieved through affinity chromatography using a histidine tag on recombinant protein. The nickel column was equilibrated with a solution A first, a crude enzyme solution was loaded, a penetrating peak was further eluted off using the solution A, and after equilibrium, a solution B (20 mM sodium phosphate, 500 mM NaCl, and 1000 mM imidazole, pH 7.4) was used for gradient elution to elute off the recombinant protein bound to the nickel column, so as to obtain the recombinant alcohol dehydrogenase mutant. The purified protein was subjected to activity measurement (CPMK as substrate, and NADPH as coenzyme) and SDS-PAGE analysis. […] The purified alcohol dehydrogenase protein was then replaced into a Tris-HCl (100 mM, pH 7.0) buffer using a Hi Trap Desalting column (GE Healthcare).
The activity of KpADH at different substrate concentrations and coenzyme concentrations was determined, and a double reciprocal curve was made based on the reciprocal of activity and substrate concentration to calculate kinetic parameters.

[2] = Substrate specificity, specific activity
Description: as §1, §2, §3
(§4) The reduction on prochiral carbonyl compounds by the alcohol dehydrogenase mutants obtained in Example 3 was studied. The pro-chiral carbonyl compounds include (4-chlorophenyl)-(pyridin-2-yl)-methanone (CPMK), phenyl-(pyridin-2-yl)-methanone, (4-chlorophenyl)-(phenyl)-methanone, (4-bromophenyl)(phenyl)methanone, (4-fluorophenyl)(phenyl)methanone, (4-methoxyphenyl)-(phenyl)-methanone, (4-nitrophenyl)(phenyl)methanone, 1-(pyridin-2-yl)ethanone, acetophenone, 4′-Chloroacetophenone, 4-chlorophenacyl chloride, ethyl 2-oxo-4-phenylbutanoate (OPBE), ethyl 4-chloro-3-oxobutanoate, and methyl 2-oxo-2-phenylacetate.

[3] = Asymmetric reduction in 20 mL biocatalytic system, conversion
Description: (§5) In an embodiment of the present disclosure, a chromatographic analysis method is as follows: 100 μL of reactant liquid is taken, 500 μL of ethyl acetate is added, shaking is performed for 1-2 min, centrifugation is performed at 12,000 rpm for 2-5 min, supernatant liquid is taken into a centrifuge tube, after an organic phase naturally volatilizes completely, 500 μL of chromatographically pure ethanol is added, and chiral liquid chromatography and gas chromatography are performed to analyze the transformation rate and the ee value.
The pure (R)-CPMA were recrystallized from ethyl acetate at 4° C. and gave 99.9% optical purity. […] Besides, the conversion cannot reach 100% with 24 h in the asymmetric reduction of (4-bromophenyl)-(phenyl)-methanone and p-nitrobenzophenone due to the low enzyme activity.

[4] = Stereoselectivity on different substrates; settings: for Stereoselectivity (ee): configuration in brackets
Description: as §5
(§6) Method for determining optical purity ee:
(§7) As: molar concentration of (S)-CPMA obtained by liquid chromatography; and AR: molar concentration of (R)-CPMA obtained by liquid chromatography.
as §4
All the products above were recrystallized from ethyl acetate and gave more than 99.9% optical purity.

[5] = Stereoselectivity on different substrates; settings: configuration in brackets
Description: as §5, §6, §7, §4

[6] = Stereoselectivity (ee) of CPMK reduction, chiral liquid chromatography; settings: for e.e.: product configuration in brackets
Description: as §5, §6, §7

[7] = substrate [drawing 6], 4-chlorophenacyl chloride
[8] = substrate [drawing 9], ethyl 4-chloro-3-oxobutanoate
[9] = substrate [drawing 10], acetophenone
[10] = substrate [drawing 11], 4-chloroacetophenone
[11] = substrate [drawing 12], 4-chlorobenzoyl chloride
[12] = substrate [drawing 16], (4-bromophenyl)-(phenyl)-methanone
[13] = substrate [drawing 17], p-nitrobenzophenone
[14] = substrate [drawing 14], likely CPMK (values partly match Table 4)

B1: E214S/S237C: serine for glutamate at position 214 and cysteine for serine at position 237 of SEQ ID No. 2 (protein)
chain: MSVLISGASGYIAKHIVRVLLEQNYKVIGTVRSQDKADKLLKQYNNPNLSYEIVPEIANLDAFDDIFKKHGKEIKYVIHAASPVNFGAKDLEKDLVIPAINGTKNMFEAIKKYAPDTVERVVMTASYASIMTPHRQNDPTLTLDEETWNPVTEENAYENVFTAYCASKTFAEKEAWKFVKENSDAVKFKLTTIHPSFVFGPQNFDEDVTKKLNSTCEIINGLLHAPFDTKVEKTHFCQFIDVRDVAKTHVLGFQKDELINQRLLLCNGAFSQQDIVNVFNEDFPELKGQFPPEDKDTDLNKGVTGCKIDNEKTKKLLAFEFTPFHKTIHDTVYQILHKEGRV
modifications: Protein translated from synthetic DNA
[1]
  Kcat: 8.33 ± 0.17 s⁻¹
  Km: 400 ± 20 µM
  Vmax: 12.5 ± 0.16 µM/min/mg
[2]; substrate [drawing 1]
  specific activity: 0.19 U/mg
[2]; substrate [drawing 2]
  specific activity: 0.09 U/mg
[2]; substrate [drawing 3]
  specific activity: 0.25 U/mg
[2]; substrate [drawing 4]
  specific activity: 5.69 U/mg
[2]; substrate [drawing 5]
  specific activity: 2.55 U/mg
[2]; [7]
  specific activity: 5.96 U/mg
[2]; substrate [drawing 7]
  specific activity: 15.58 U/mg
[2]; substrate [drawing 8]
  specific activity: 30.69 U/mg
[2]; [8]
  specific activity: 1.59 U/mg
[3]; 4-chlorobenzoyl chloride 100 mM, 1 h
  Conversion rate: 66%
[3]; 4-chlorobenzoyl chloride 100 mM, 2 h
  Conversion rate: 79%
[3]; 4-chlorobenzoyl chloride 100 mM, 3 h
  Conversion rate: 90%
[3]; 4-chlorobenzoyl chloride 100 mM, 4 h
  Conversion rate: 98%
[3]; 4-chlorobenzoyl chloride 100 mM, 6 h
  Conversion rate: 99.2%
[3]; 4-chlorobenzoyl chloride 100 mM, 8 h
  Conversion rate: 99.8%
[3]; 4-chlorobenzoyl chloride 100 mM, 12 h
  Conversion rate: >99.9%
[3]; 4-chlorobenzoyl chloride 100 mM, 24 h
  Conversion rate: >99.9%
[3]; 4-chlorobenzoyl chloride 200 mM, 1 h
  Conversion rate: 55%
[3]; 4-chlorobenzoyl chloride 200 mM, 2 h
  Conversion rate: 69%
[3]; 4-chlorobenzoyl chloride 200 mM, 3 h
  Conversion rate: 76%
[3]; 4-chlorobenzoyl chloride 200 mM, 4 h
  Conversion rate: 85.9%
[3]; 4-chlorobenzoyl chloride 200 mM, 6 h
  Conversion rate: 96.4%
[3]; 4-chlorobenzoyl chloride 200 mM, 8 h
  Conversion rate: 99.1%
[3]; 4-chlorobenzoyl chloride 200 mM, 12 h
  Conversion rate: 99.8%
[3]; 4-chlorobenzoyl chloride 200 mM, 24 h
  Conversion rate: >99.9%
[3]; 4-chlorobenzoyl chloride 500 mM, 1 h
  Conversion rate: 35.6%
[3]; 4-chlorobenzoyl chloride 500 mM, 2 h
  Conversion rate: 49.6%
[3]; 4-chlorobenzoyl chloride 500 mM, 3 h
  Conversion rate: 66.4%
[3]; 4-chlorobenzoyl chloride 500 mM, 4 h
  Conversion rate: 79.3%
[3]; 4-chlorobenzoyl chloride 500 mM, 6 h
  Conversion rate: 89.0%
[3]; 4-chlorobenzoyl chloride 500 mM, 8 h
  Conversion rate: 95.6%
[3]; 4-chlorobenzoyl chloride 500 mM, 12 h
  Conversion rate: 96.9%
[3]; 4-chlorobenzoyl chloride 500 mM, 24 h
  Conversion rate: 98.9%
[4]; substrate 4-chlorobenzoyl chloride
  ee value: 99.6%
[4]; [9]
  Stereoselectivity (ee): 98.9 (R)
[4]; [10]
  Stereoselectivity (ee): 95.6 (R)
[4]; [11]
  Stereoselectivity (ee): 99.6 (R)
[4]; [12]
  Stereoselectivity (ee): 90.6 (R)
[4]; [13]
  Stereoselectivity (ee): 91.9 (R)
[5]; substrate [drawing 13]
  Stereoselectivity (ee): 52.6 (R)
[5]; [14]
  Stereoselectivity (ee): 52.0 (S)
[5]; substrate [drawing 15]
  Stereoselectivity (ee): 88.1 (R)
[5]; substrate [drawing 18]
  Stereoselectivity (ee): 92.3 (R)
[6]
  configuration of product / stereoselectivity in words: inversion from the R configuration to the S configuration; also recorded: (S)-CPMA
  e.e.: 52.0 (S)

B2: E214N/S237C: asparagine for glutamate at position 214 and cysteine for serine at position 237 of SEQ ID No. 2 (protein)
chain: B1 chain with S214N
modifications: Protein translated from synthetic DNA
[1]
  Kcat: 5.87 ± 0.13 s⁻¹
  Km: 220 ± 20 µM
  Vmax: 8.80 ± 0.20 µM/min/mg
[2]; substrate [drawing 1]
  specific activity: 0.84 U/mg
[2]; substrate [drawing 2]
  specific activity: 0.52 U/mg
[2]; substrate [drawing 3]
  specific activity: 0.32 U/mg
[2]; substrate [drawing 4]
  specific activity: 7.50 U/mg
[2]; substrate [drawing 5]
  specific activity: 7.48 U/mg
[2]; [7]
  specific activity: 10.02 U/mg
[2]; substrate [drawing 7]
  specific activity: 17.10 U/mg
[2]; substrate [drawing 8]
  specific activity: 13.21 U/mg
[2]; [8]
  specific activity: 5.80 U/mg
[4]; [9]
  Stereoselectivity (ee): 99.0 (R)
[4]; [10]
  Stereoselectivity (ee): 97.4 (R)
[4]; [11]
  Stereoselectivity (ee): 93.6 (R)
[4]; [12]
  Stereoselectivity (ee): 91.9 (R)
[4]; [13]
  Stereoselectivity (ee): 90.7 (R)
[4]; substrate p-nitrobenzophenone, (S)
  ee: 99.1%
[5]; substrate [drawing 13]
  Stereoselectivity (ee): 51.5 (R)
[5]; [14]
  Stereoselectivity (ee): 57.1 (S)
[5]; substrate [drawing 15]
  Stereoselectivity (ee): 57.1 (R)
[5]; substrate [drawing 18]
  Stereoselectivity (ee): 99.1 (S)
[6]
  configuration of product / stereoselectivity in words: inversion from the R configuration to the S configuration; also recorded: (S)-CPMA
  e.e.: 43.6 (S)

B3: E214R/S237C: arginine for glutamate at position 214 and cysteine for serine at position 237 of SEQ ID No. 2 (protein)
chain: B1 chain with S214R
modifications: Protein translated from synthetic DNA
[1]
  Kcat: 10.4 ± 0.11 s⁻¹
  Km: 880 ± 20 µM
  Vmax: 15.6 ± 0.16 µM/min/mg
[2]; substrate [drawing 1]
  specific activity: 0.26 U/mg
[2]; substrate [drawing 2]
  specific activity: 0.18 U/mg
[2]; substrate [drawing 3]
  specific activity: 0.36 U/mg
[2]; substrate [drawing 4]
  specific activity: 4.21 U/mg
[2]; substrate [drawing 5]
  specific activity: 1.96 U/mg
[2]; [7]
  specific activity: 6.69 U/mg
[2]; substrate [drawing 7]
  specific activity: 22.48 U/mg
[2]; substrate [drawing 8]
  specific activity: 30.69 U/mg
[2]; [8]
  specific activity: 1.88 U/mg
[4]; [9]
  Stereoselectivity (ee): 98.3 (R)
[4]; [10]
  Stereoselectivity (ee): 97.2 (R)
[4]; [11]
  Stereoselectivity (ee): 92.9 (R)
[4]; [12]
  Stereoselectivity (ee): 89.9 (R)
[4]; [13]
  Stereoselectivity (ee): 88.0 (R)
[5]; substrate [drawing 13]
  Stereoselectivity (ee): 50.1 (R)
[5]; [14]
  Stereoselectivity (ee): 48.3 (S)
[5]; substrate [drawing 15]
  Stereoselectivity (ee): 49.8 (R)
[5]; substrate [drawing 18]
  Stereoselectivity (ee): 91.9 (R)
[6]
  configuration of product / stereoselectivity in words: inversion from the R configuration to the S configuration; also recorded: (S)-CPMA
  e.e.: 48.3 (S)

B4: E214V/S237A: valine for glutamate at position 214 and alanine for serine at position 237 of SEQ ID No. 2 (protein)
chain: B1 chain with S214V, C237A
modifications: Protein translated from synthetic DNA
[1]
  Kcat: 8.46 ± 0.27 s⁻¹
  Km: 320 ± 30 µM
  Vmax: 12.69 ± 0.40 µM/min/mg
[2]; substrate [drawing 1]
  specific activity: 0.16 U/mg
[2]; substrate [drawing 2]
  specific activity: 0.12 U/mg
[2]; substrate [drawing 3]
  specific activity: 2.37 U/mg
[2]; substrate [drawing 4]
  specific activity: 2.86 U/mg
[2]; substrate [drawing 5]
  specific activity: 9.21 U/mg
[2]; [7]
  specific activity: 27.07 U/mg
[2]; substrate [drawing 7]
  specific activity: 24.47 U/mg
[2]; substrate [drawing 8]
  specific activity: 27.64 U/mg
[2]; [8]
  specific activity: 8.03 U/mg
[4]; [9]
  Stereoselectivity (ee): 17.1 (R)
[4]; [10]
  Stereoselectivity (ee): 97.8 (R)
[4]; [11]
  Stereoselectivity (ee): 75.2 (R)
[4]; [12]
  Stereoselectivity (ee): 88.1 (S)
[4]; [13]
  Stereoselectivity (ee): 85.3 (S)
[5]; substrate [drawing 13]
  Stereoselectivity (ee): 36.6 (R)
[5]; [14]
  Stereoselectivity (ee): 98.7 (R)
[5]; substrate [drawing 15]
  Stereoselectivity (ee): 54.2 (S)
[5]; substrate [drawing 18]
  Stereoselectivity (ee): 81.8 (S)
[6]
  e.e.: 98.5 (R)
